Test results published in patent publication EP2017284A1 (INSTITUT PASTEUR, dated 2009).

Biological target: T1, GST-E2 fusion protein (HPV18 E2) (HPV18, UniProt P06790 1-365)
T1 sequence: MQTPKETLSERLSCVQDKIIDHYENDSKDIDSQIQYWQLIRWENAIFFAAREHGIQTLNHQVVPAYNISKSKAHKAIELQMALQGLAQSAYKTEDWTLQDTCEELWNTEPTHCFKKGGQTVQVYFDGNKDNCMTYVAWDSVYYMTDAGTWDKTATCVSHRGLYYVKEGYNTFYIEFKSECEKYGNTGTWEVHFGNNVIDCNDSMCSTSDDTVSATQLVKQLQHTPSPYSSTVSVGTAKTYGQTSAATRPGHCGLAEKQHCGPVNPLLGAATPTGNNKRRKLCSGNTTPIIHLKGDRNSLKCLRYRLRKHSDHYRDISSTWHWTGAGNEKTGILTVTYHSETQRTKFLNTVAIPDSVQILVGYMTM
Assay: GST pull-down of 35S in vitro translated protein, autoradiography

B1: caspase 8 catalytic domain (C8 CD) (other)
chain: EFSKERSSSLEGSPDEFSNGEELCGVMTISDSPREQDSESQTLDKVYQMKSKPRGYCLIINNHNFAKAREKVPKLHSIRDRNGTHLDAGALTTTFEELHFEIKPHDDCTVEQIYEILKIYQLMDHSNMDCFICCILSHGDKGIIYGTDGQEAPIYELTSQFTGLKCPSLAGKPKVFFIQACQGDNYQKGIPVETDSEEQPYLEMDLSSPQTRYIPDEADFLLGMATVNNCVSYRNPAEGTWYIQSLCQSLRERCPRGDDILTILTEVNYEVSNKDDKKNMGKQMPQPTFTLRKKLVFPSD
notes: range 180-480; also called caspase catalytic domain
  binding result: no binding
